Results taken from the Immune Epitope Database (IEDB).

Key:
[1] = target: HLA-A*01:01; assay: IEDB peptide-MHC binding, purified MHC/direct/fluorescence; filed as Kd, often an IC50 or EC50 that approximates it; ≥ and ≤ were set here for values at or beyond the usual limits of such assays
[2] = target: HLA-B*58:01; assay: as above
[3] = target: HLA-A*31:01; assay: as above
[4] = target: HLA-A*02:01; assay: as above
[5] = target: HLA-A*11:01; assay: as above
[6] = target: HLA-B*48:01; assay: as above; conditions: source organism: Escherichia coli O157:H7
[7] = target: HLA-B*46:01; assay: as above
[8] = target: HLA-B*57:01; assay: as above; conditions: source organism: Escherichia coli O157:H7
[9] = target: HLA-B*15:17; assay: as above; conditions: source organism: Escherichia coli O157:H7
[10] = target: HLA-B*40:01; assay: as above
[11] = target: HLA-B*07:02; assay: as above
[12] = target: HLA-A*03:01; assay: as above
[13] = target: HLA-B*27:05; assay: as above
[14] = target: HLA-B*15:01; assay: IEDB peptide-MHC binding, purified MHC/competitive/fluorescence; filed as Kd, often an IC50 or EC50 that approximates it; ≥ and ≤ were set here for values at or beyond the usual limits of such assays; conditions: source organism: Escherichia coli
[15] = target: HLA-A*68:02; assay: as above
[16] = target: HLA-A*26:02; assay: as above
[17] = target: HLA-A*02:06; assay: as above
[18] = target: HLA-A*69:01; assay: as above
[19] = target: HLA-B*15:01; assay: IEDB peptide-MHC binding, purified MHC/direct/fluorescence; filed as Kd, often an IC50 or EC50 that approximates it; ≥ and ≤ were set here for values at or beyond the usual limits of such assays
[20] = target: HLA-B*35:01; assay: as above
[21] = target: HLA-B*44:02; assay: as above
[22] = target: HLA-B*08:01; assay: as above
[23] = target: HLA-A*26:01; assay: as above
[24] = target: HLA-B*15:02; assay: as above
[25] = target: HLA-A*69:01; assay: as above
[26] = target: HLA-A*01:01; assay: IEDB peptide-MHC binding, purified MHC/competitive/fluorescence; filed as Kd, often an IC50 or EC50 that approximates it; ≥ and ≤ were set here for values at or beyond the usual limits of such assays; conditions: source organism: Human immunodeficiency virus 1
[27] = target: HLA-B*58:01; assay: as above; conditions: source organism: Human immunodeficiency virus 1
[28] = target: HLA-A*31:01; assay: as above; conditions: source organism: Human immunodeficiency virus 1
[29] = target: HLA-B*18:01; assay: as above; conditions: source organism: Human immunodeficiency virus 1
[30] = target: HLA-A*11:01; assay: as above; conditions: source organism: Human immunodeficiency virus 1
[31] = target: HLA-A*30:01; assay: as above; conditions: source organism: Human immunodeficiency virus 1
[32] = target: HLA-B*35:01; assay: as above; conditions: source organism: Human immunodeficiency virus 1
[33] = target: HLA-A*02:03; assay: as above; conditions: source organism: Human immunodeficiency virus 1
[34] = target: HLA-B*57:01; assay: as above; conditions: source organism: Human immunodeficiency virus 1
[35] = target: HLA-B*39:01; assay: as above; conditions: source organism: Human immunodeficiency virus 1
[36] = target: HLA-B*15:17; assay: as above; conditions: source organism: Human immunodeficiency virus 1
[37] = target: HLA-B*08:01; assay: as above; conditions: source organism: Human immunodeficiency virus 1
[38] = target: HLA-A*02:16; assay: IEDB peptide-MHC binding, purified MHC/direct/fluorescence; filed as Kd, often an IC50 or EC50 that approximates it; ≥ and ≤ were set here for values at or beyond the usual limits of such assays; conditions: source organism: Mycobacterium tuberculosis
[39] = target: HLA-A*02:50; assay: IEDB peptide-MHC binding, purified MHC/competitive/fluorescence; filed as Kd, often an IC50 or EC50 that approximates it; ≥ and ≤ were set here for values at or beyond the usual limits of such assays
[40] = target: HLA-B*18:01; assay: IEDB peptide-MHC binding, purified MHC/direct/fluorescence; filed as Kd, often an IC50 or EC50 that approximates it; ≥ and ≤ were set here for values at or beyond the usual limits of such assays; conditions: source organism: Escherichia coli O157:H7
[41] = target: HLA-A*24:02; assay: as above; conditions: source organism: Escherichia coli O157:H7
[42] = target: HLA-C*03:03; assay: as above; conditions: source organism: Escherichia coli O157:H7 str. EDL933
[43] = source organism: Escherichia coli O157:H7
[44] = source organism: Escherichia coli
[45] = source organism: Vibrio vulnificus
[46] = source organism: Human immunodeficiency virus 1
[47] = source organism: Mycobacterium tuberculosis
[48] = source organism: Giardia lamblia ATCC 50803
[49] = source organism: Listeria monocytogenes
[50] = source organism: Listeria monocytogenes serotype 4b str. H7858

## EQRLIDICV
[1]; [43]
  Kd: ≥ 20 µM
[2]; [43]
  Kd: ≥ 20 µM
[3]; [43]
  Kd: ≥ 20 µM
[4]; [43]
  Kd: ≥ 20 µM
[5]; [43]
  Kd: ≥ 20 µM
[6]
  Kd: ≥ 20 µM
[7]; [43]
  Kd: ≥ 20 µM
[8]
  Kd: ≥ 20 µM
[9]
  Kd: ≥ 20 µM
[10]; [43]
  Kd: ≥ 20 µM
[11]; [43]
  Kd: ≥ 20 µM
[12]; [43]
  Kd: ≥ 20 µM
[13]; [43]
  Kd: ≥ 20 µM
[14]
  Kd: 0.863 µM
[15]; [44]
  Kd: ≥ 20 µM
[16]; [44]
  Kd: ≥ 20 µM
[17]; [44]
  Kd: 0.846 µM
[18]; [44]
  Kd: ≥ 20 µM

## IQTHCEVGY
[1]; [45]
  Kd: ≥ 20 µM
[2]; [45]
  Kd: ≥ 20 µM
[3]; [45]
  Kd: ≥ 20 µM
[4]; [45]
  Kd: ≥ 20 µM
[19]; [45]
  Kd: 0.285 µM
[5]; [45]
  Kd: ≥ 20 µM
[20]; [45]
  Kd: 0.94 µM
[7]; [45]
  Kd: ≥ 20 µM
[21]; [45]
  Kd: ≥ 20 µM
[10]; [45]
  Kd: ≥ 20 µM
[22]; [45]
  Kd: ≥ 20 µM
[11]; [45]
  Kd: ≥ 20 µM
[23]; [45]
  Kd: ≥ 20 µM
[12]; [45]
  Kd: ≥ 20 µM
[24]; [45]
  Kd: ≥ 20 µM
[25]; [45]
  Kd: ≥ 20 µM
[13]; [45]
  Kd: ≥ 20 µM

## KSLFNTVATLY
[26]
  Kd: 2.11 µM
[27]
  Kd: 0.0028 µM
[28]
  Kd: ≥ 20 µM
[29]
  Kd: 0.242 µM
[30]
  Kd: 0.233 µM
[31]
  Kd: ≥ 20 µM
[15]; [46]
  Kd: 3.47 µM
[32]
  Kd: 2.41 µM
[33]
  Kd: 0.19 µM
[34]
  Kd: 0.235 µM
[35]
  Kd: ≥ 20 µM
[16]; [46]
  Kd: ≥ 20 µM
[36]
  Kd: 0.0038 µM
[17]; [46]
  Kd: 0.155 µM
[37]
  Kd: ≥ 20 µM
[18]; [46]
  Kd: 2.84 µM

## LLLRPFWPA
[38]
  Kd: 0.01 µM
[4]; [47]
  Kd: 0.113 µM
[25]; [47]
  Kd: 0.0303 µM
[39]; [47]
  Kd: 0.0091 µM

## LLPYPIAGC
[1]; [48]
  Kd: ≥ 20 µM
[2]; [48]
  Kd: ≥ 20 µM
[3]; [48]
  Kd: ≥ 20 µM
[4]; [48]
  Kd: 5.1 µM
[19]; [48]
  Kd: ≥ 20 µM
[5]; [48]
  Kd: ≥ 20 µM
[21]; [48]
  Kd: ≥ 20 µM
[10]; [48]
  Kd: ≥ 20 µM
[22]; [48]
  Kd: ≥ 20 µM
[11]; [48]
  Kd: ≥ 20 µM
[23]; [48]
  Kd: ≥ 20 µM
[12]; [48]
  Kd: ≥ 20 µM
[25]; [48]
  Kd: 4.2 µM
[13]; [48]
  Kd: ≥ 20 µM
[39]; source organism: Giardia intestinalis ATCC 50581
  Kd: 0.0235 µM

## LMKAPGTYH
[19]; [49]
  Kd: 0.0668 µM
[20]; [50]
  Kd: ≥ 20 µM
[7]; [49]
  Kd: 4.83 µM
[11]; [50]
  Kd: ≥ 20 µM
[24]; [49]
  Kd: 0.258 µM

## YLFQWNDNV
[1]; [43]
  Kd: ≥ 20 µM
[2]; [43]
  Kd: ≥ 20 µM
[4]; [43]
  Kd: 0.0021 µM
[19]; [43]
  Kd: 1.71 µM
[40]
  Kd: ≥ 20 µM
[5]; [43]
  Kd: ≥ 20 µM
[41]
  Kd: ≥ 20 µM
[42]
  Kd: ≥ 20 µM
[21]; [43]
  Kd: ≥ 20 µM
[10]; [43]
  Kd: ≥ 20 µM
[11]; [43]
  Kd: ≥ 20 µM
[12]; [43]
  Kd: ≥ 20 µM
[25]; [43]
  Kd: 0.0036 µM
[13]; [43]
  Kd: ≥ 20 µM
[39]; source organism: Escherichia coli O157:H7 str. EDL933
  Kd: ≤ 0.0001 µM
